Reference: paper doi:10.1101/2025.11.14.688546, “Nuclear-import receptors remodel the dilute phase to suppress phase transitions of RNA-binding proteins with prion-like domains” (bioRxiv, 2025)
Read-outs that look alike come from different tables or passages of the source. Each block holds one molecule with its values, some of them ahead of it.

Legend:
hnRNPA1 = hnRNPA1 (UniProt P09651)
Kapβ2 (Homo sapiens) [1] = target: Kapβ2 (Homo sapiens) (UniProt Q92973); assay: fluorescence anisotropy; settings: cited from earlier work
Kapβ2 (Homo sapiens), sequence (Q92973 whole entry): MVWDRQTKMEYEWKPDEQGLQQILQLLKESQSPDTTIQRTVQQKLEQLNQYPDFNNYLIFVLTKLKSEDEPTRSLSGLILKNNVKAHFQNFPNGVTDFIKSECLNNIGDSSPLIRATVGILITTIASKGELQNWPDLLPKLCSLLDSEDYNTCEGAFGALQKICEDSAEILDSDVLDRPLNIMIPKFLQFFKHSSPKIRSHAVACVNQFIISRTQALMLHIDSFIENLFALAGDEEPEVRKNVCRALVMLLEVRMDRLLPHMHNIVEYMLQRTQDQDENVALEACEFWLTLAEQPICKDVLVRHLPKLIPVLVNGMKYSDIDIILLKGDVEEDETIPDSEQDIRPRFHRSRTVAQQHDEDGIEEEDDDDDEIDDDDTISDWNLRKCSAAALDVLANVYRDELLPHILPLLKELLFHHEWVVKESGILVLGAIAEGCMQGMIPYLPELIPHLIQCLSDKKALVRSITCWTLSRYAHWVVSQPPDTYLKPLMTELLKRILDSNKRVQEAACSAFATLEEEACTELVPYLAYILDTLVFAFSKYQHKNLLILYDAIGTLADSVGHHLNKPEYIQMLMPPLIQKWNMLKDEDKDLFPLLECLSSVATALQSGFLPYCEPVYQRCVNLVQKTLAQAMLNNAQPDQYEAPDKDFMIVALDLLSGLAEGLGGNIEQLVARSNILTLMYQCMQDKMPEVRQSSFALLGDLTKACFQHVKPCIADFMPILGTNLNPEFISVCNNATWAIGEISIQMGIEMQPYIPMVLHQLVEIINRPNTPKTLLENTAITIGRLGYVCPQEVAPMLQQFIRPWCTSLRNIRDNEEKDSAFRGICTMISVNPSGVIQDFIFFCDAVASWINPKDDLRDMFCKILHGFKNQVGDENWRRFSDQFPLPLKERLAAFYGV

Kapβ2 (Homo sapiens) [2] = target: Kapβ2 (Homo sapiens) (UniProt Q92973); settings: cited from earlier work
[3] = target: the molecule itself; assay: microfluidic resistive pulse sensing (MRPS); increasing concentrations of the RNA-binding protein alone; MBP cleaved in situ by TEV (0.04 mg/ml), 1.5–2 h at room temperature; C-400 and C-2000 cartridges (70–2000 nm); FUS: 20 mM HEPES pH 7.4, 207 mM NaCl, 1.3 mM DTT, 0.7 mM EDTA, 3.3 % glycerol; hnRNPA1 and hnRNPA2: same with 66.7 mM NaCl

hnRNPA1, sequence (P09651 whole entry): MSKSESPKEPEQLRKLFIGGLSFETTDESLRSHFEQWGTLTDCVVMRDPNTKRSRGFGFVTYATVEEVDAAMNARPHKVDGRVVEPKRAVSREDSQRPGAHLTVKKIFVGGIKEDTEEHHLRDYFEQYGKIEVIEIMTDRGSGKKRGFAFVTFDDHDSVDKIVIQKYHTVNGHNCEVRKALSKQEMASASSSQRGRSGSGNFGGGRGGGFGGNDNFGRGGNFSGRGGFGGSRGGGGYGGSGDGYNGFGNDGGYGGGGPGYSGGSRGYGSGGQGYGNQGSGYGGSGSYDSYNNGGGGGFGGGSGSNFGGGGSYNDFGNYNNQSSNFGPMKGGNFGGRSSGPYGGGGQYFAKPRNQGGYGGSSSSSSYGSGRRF

saturation concentration (csat) of hnRNPA1 for condensate formation, brightfield microscopy; ~4 μM without Kapβ2, measured with 2 μM Kapβ2 (hnRNPA1): 6 µM
Molecule: Karyopherin-β2 (from UniProt Q92973 1-898) (natural protein)

Molecule: FUS (from UniProt P35637)
Kd (Kapβ2 (Homo sapiens) [1]): 43 nM | Kd (Kapβ2 (Homo sapiens) [2]): 50 nM

B1: FUS^P525L (natural protein, UniProt P35637 1-526, looked up)
chain: MASNDYTQQATQSYGAYPTQPGQGYSQQSSQPYGQQSYSGYSQSTDTSGYGQSSYSSYGQSQNTGYGTQSTPQGYGSTGGYGSSQSSQSSYGQQSSYPGYGQQPAPSSTSGSYGSSSQSSSYGQPQSGSYSQQPSYGGQQQSYGQQQSYNPPQGYGQQNQYNSSSGGGGGGGGGGNYGQDQSSMSSGGGSGGGYGNQDQSGGGGSGGYGQQDRGGRGRGGSGGGGGGGGGGYNRSSGGYEPRGRGGGRGGRGGMGGSDRGGFNKFGGPRDQGSRHDSEQDNSDNNTIFVQGLGENVTIESVADYFKQIGIIKTNKKTGQPMINLYTDRETGKLKGEATVSFDDPPSAKAAIDWFDGKEFSGNPIKVSFATRRADFNRGGGNGRGGRGRGGPMGRGGYGGGGSGGGGRGGFPSGGGGGGGQQRAGDWKCPNPTCENMNFSWRNECNQCKAPKPDGPGGGPGGSHMGGNYGDDRRGGRGGYDRGGYRGRGGDRGGFRGGRGGGDRGGFGPGKMDSRGEHRQDRRERLY
notes: Production of the variant is not described on its own; also called ALS-linked FUS variant P525L; not shown: MBP, N-terminal, cleaved
binding result [3]: binds
